B1: MBP-CRACR2a_(47–122), EF-hand pair of calcium release-activated calcium channel regulator 2A (domain or fragment, human, UniProt Q9BSW2-1 47-122, looked up)
chain: GQLVMLRKAQEFFQTCDAEGKGFIARKDMQRLHKELPLSLEELEDVFDALDADGNGYLTPQEFTTGFSHFFFSQNN
notes: Cloned into pMAL-c2X; the MBP tag was not removed for the ITC experiments; also called Ca^2+-CRACR2a; not shown: MBP, N-terminal, kept
B3: NIN_(1–87), first EF-hand pair of Ninein (domain or fragment, human, UniProt Q8N4C6-1 1-87, looked up)
chain: MDEVEQDQHEARLKELFDSFDTTGTGSLGQEELTDLCHMLSLEEVAPVLQQTLLQDNLLGRVHFDQFKEALILILSRTLSNEEHFQE
notes: NIN (Ninein), human, UniProt Q8N4C6-1, residues 1-87 (EF-hand pair); Cloned into pMAL-c2X
B4: FIP3_(206–270), EF-hand pair of Rab11 family-interacting protein 3 (domain or fragment, human, UniProt O75154-1 206-270, looked up)
chain: RLRAVFDALDGDGDGFVRIEDFIQFATVYGAEQVKDLTKYLDPSGLGVISFEDFYQGITAIRNGD
notes: Cloned into pMAL-c2X

Experiments:
Conditions in all cases: both partners purified
[1] = target: T1, MBP-LIC1FL, full-length dynein light intermediate chain-1 (human, UniProt Q9Y6G9 1-523); assay: ITC; EF-hand pairs titrated into MBP-LIC1FL; 20 mM HEPES (pH 7.5), 100 mM NaCl, 0.5 mM TCEP, 5 mM CaCl2; 20 or 30 °C
T1 construct: cytoplasmic dynein-1 light intermediate chain-1 (LIC1), human, full length; also called MBP-LICFL; full-length LIC1

[2] = target: B1; assay: ITC; EF-hand pairs titrated into LIC1_(433–458); 20 mM HEPES (pH 7.5), 100 mM NaCl, 0.5 mM TCEP; 5 mM CaCl2 or 5 mM EGTA as indicated in the figure; 20 or 30 °C
[3] = target: B3; assay: as above
[4] = target: B4; assay: as above

T1 sequence (Q9Y6G9 whole entry): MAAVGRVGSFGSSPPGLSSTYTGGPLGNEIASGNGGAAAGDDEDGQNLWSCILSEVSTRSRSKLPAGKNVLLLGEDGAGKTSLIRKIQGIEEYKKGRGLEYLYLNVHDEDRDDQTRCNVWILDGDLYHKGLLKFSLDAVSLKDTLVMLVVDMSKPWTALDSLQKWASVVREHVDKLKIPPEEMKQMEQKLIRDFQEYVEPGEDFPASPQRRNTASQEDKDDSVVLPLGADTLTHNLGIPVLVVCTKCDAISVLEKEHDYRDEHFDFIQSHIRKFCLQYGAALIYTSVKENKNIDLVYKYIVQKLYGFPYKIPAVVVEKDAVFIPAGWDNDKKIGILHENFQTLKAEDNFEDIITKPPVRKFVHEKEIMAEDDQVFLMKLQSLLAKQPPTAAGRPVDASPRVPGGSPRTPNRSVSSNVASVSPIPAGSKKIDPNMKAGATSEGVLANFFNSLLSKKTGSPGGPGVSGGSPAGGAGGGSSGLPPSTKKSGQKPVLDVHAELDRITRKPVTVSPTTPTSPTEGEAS

B1
Kd [1]: ~3.6 µM | stoichiometry N [1]: ~1

B2: LIC1_(433–458), amphipathic helix of the dynein light intermediate chain-1 (peptide, UniProt Q9Y6G9 433-458, looked up)
peptide: NMKAGATSEGVLANFFNSLLSKKTGS
notes: Its concentration was determined with fluorescamine-labeled peptide; also called LIC1 helix; source: peptide after reverse-phase purification
Kd [2]: ~1.4 µM | Kd [3]: ~5.4 µM | Kd [4]: ~2 µM

B3
Kd [1]: ~12 µM | stoichiometry N [1]: ~1

B4
Kd [1]: ~6.1 µM | stoichiometry N [1]: ~1

Source: PMC7655957, “A tunable LIC1-adaptor interaction modulates dynein activity in a cargo-specific manner” (Nature Communications, 2020)
